Source: patent publication US20240092847A1, “FUNCTIONAL NUCLEIC ACID MOLECULE AND METHOD” (The University Court of The University of Edinburgh, priority 2021, published 2024)

B1: SSE-5: synthetic super-enhancer ID2706_ID3547_ID3548_ID3146, SEQ ID NO: 68 (nucleic acid)
DNA: CCAATGCCAAAGCAGTTTACATTTTACAGATGCCATGGCAACCGTCAGGAAGTTACCCTGTATGGTCTAAGAGGGGGAGGAACCCTCAGTTCCGGGAATTGCCCGCCCCTTTCCCGGAAACTCATGAATAATCCACCCCGTTCCCCCTTAACAAAAGCCACCTCCTCCCTCCTGAAAGGCACCATTGGTCACCAAAACAAGTCCCCTTTGTCCTCCACCGCAGCTGGAGCCTGGGCCTTCCATCTCCTGGGGGCCAATAAAACCCCAGATCAGCCAATCCTCCCTCCCTGGCTCTGTCATCCAAACACTCCCCTGCAACAGATGTACACACAGAGCCCATTGTTTTCTCTAGAAATGTAAACTGCACGTCACAGTTACTCCATACACACCACAAACAGACTCCCTTTGTTCTCAGGATATGTGTTGACACAAGAATATGTCATCCTCTCAGCTCCAGACTGAAAGAGATGGGTGTGTGGGAGTGGGGGAAGCTGAGCTCCAGGCAGACAGCACAGAGCCGCCTTGTCCAACCCAGCCAGGTGCCATGGCAACCAACAAAGGCCCCATTGTCCCGTGTCTGCTGGGCCTTCCTGAGGCTCTGGGGTCAGAGTCCCGGTT
B2: SSE-3: synthetic super-enhancer ID0876_ID2339_ID1737_ID0663, SEQ ID NO: 66 (nucleic acid)
DNA: GAGCAGGCAGTCATTTGGTTCCCTTCTCTGAATGCATTGGCTCTGATCCACGGCGCCTCAGGAAGTGAAAGGGAGCAGGCAGTGAGGCCAAGCCATGAATGTTGGGCCCTTTTCTTAGAAAACAAAGGGTTCACTTTAGGCTAGGAGGAAACATCCGGGGGTCGGCGGAACTGAGTCTCCTTTGTGGAGCCCCTCATTTGCATGATAAACCCCGGGGACAAAGTGTGTTCTTGTTACTTGGACTGTTTCTTGGAAACTGCTGCTACCTGGAGCGAGTGAACACAGGGCAAGTATTCTCGCCCACAGCAACGTGTCATTGACAACGTTTTTGGCAGATGCAGCTCTTTCTGAACAGTAAGTCATTGTTGAGTGACATGAATAGGACGAGAGCTACAGAAAATGAAGGTTTCAAAAGATTGTCTAAAACAAAAGTCCTTTCAGTCCCGTATTCAGAGTTATAAATTCCGATTAGCCAAGGAAGCTCTGAGTCTAAATACCAGCAAAGCTCAGCCCCTGCAAGTGGGGACGAATTATTTGAAAGGTCATCCTAGAGACACTGAACAAAGGGCCTCTAGCAGCT
B3: SSE-2: synthetic super-enhancer ID0109_ID4328_ID0876_ID2339, SEQ ID NO: 65 (nucleic acid)
DNA: GAAATTGGATCCTGAGGAGAATGTCACCACCTCTTTGACAATAACTAGCTTTCAGAGCTGAACACAGTGAATCTGGATACTGTGTATATGTTTAAATGAGTTAGGAAATGACATCACATTATTTATTTCTTCTTTTGTGACTTAGTAAATTGACTTGGCCTACAATCTATTCTCCATAGTCATCAGAGTTTCTTTAAAGGCACGGTTCAGACAATGGCACCCTCTGTTCCAAACCCTCCAGGGCTTCCTATTTCACTTAGCATAAAAACCAAAGTCCTCACAATGACCGACAAGTCTTCACACAATGTGCCCCTTCATTGGAGCAGGCAGTCATTTGGTTCCCTTCTCTGAATGCATTGGCTCTGATCCACGGCGCCTCAGGAAGTGAAAGGGAGCAGGCAGTGAGGCCAAGCCATGAATGTTGGGCCCTTTTCTTAGAAAACAAAGGGTTCACTTTAGGCTAGGAGGAAACATCCGGGGGTCGGCGGAACTGAGTCTCCTTTGTGGAGCCCCTCATTTGCATGATAAACCCCGGGGACAAAGTGTGTTCTTGTTACTTGGACTGTTTCTTGGAAACTGCTGCTACCTGGAGCGAGTGAACACAGGGCAAGTATTCTCGCCCACAGCAACGTGTCATTGA
B4: SSE-1: synthetic super-enhancer ID1101_ID2904_ID0109_ID4328, SEQ ID NO: 64 (nucleic acid)
DNA: GTGAGTGTGACTCACATGCTGGCATCAGAGCCCCTCTTAGAGCTTAGAACACTGGGCCTCTGTCAGGCAAAGAAAAGGAGTCCCTATGAATAGCCATCTCCACAAATAGCAGTTACTGTCACTTCTTAAAAGACACAAGCATGGCTGGAGACCGGCACTGTGCATGTTCTTGGGAAAAAGTGGTATTTAATGAAGGCGCTTTGAGCTGAATCAAAGAGCCTCATTCTTCTGAAAGTCCTTCTTCCTAGTCTCTGCATCCGGCTCCTATCAAAGGAAATCCACAGCTTTGGCTTTTCGTTGCTGTTGTCATGGAAATCGTTGAAATTGGATCCTGAGGAGAATGTCACCACCTCTTTGACAATAACTAGCTTTCAGAGCTGAACACAGTGAATCTGGATACTGTGTATATGTTTAAATGAGTTAGGAAATGACATCACATTATTTATTTCTTCTTTTGTGACTTAGTAAATTGACTTGGCCTACAATCTATTCTCCATAGTCATCAGAGTTTCTTTAAAGGCACGGTTCAGACAATGGCACCCTCTGTTCCAAACCCTCCAGGGCTTCCTATTTCACTTAGCATAAAAACCAAAGTCCTCACAATGACCGACAAGTCTTCACACAATGTGCCCCTTCATTG
B5: SSE-7: synthetic super-enhancer ID4310_ID4428_ID0785_ID3836, SEQ ID NO: 70 (nucleic acid)
DNA: TTGTCCTGCCTTTGAGAACACTGGAAGGGCACTGAAGGCTGACCAGCATGCACCTCACCCCACCTCCTCTCTGTCTCATCCTCAGCCATCTAAGCGGGAGACTCATCAGGCTTAAATTCTCATTCTTATCCAAGATTCTTCTGCTTCAAATGAGTCTAAATGGAGATCCTCCCATAAAGGGAGTTCTGTTTGGGCTTCCCTTGGAAGTCCATTGAAAGCGTTTCACATTTCAATGCTTCTTTACATTCTCCTCTAGAATGAATCTGGAAGGGCCATTTCATTCCAGCCCTATCAGATTTACTACTTCCTCCTGTAAGAATGAACTGGGCCCAGCTGGGCATTTGCATCAAAGTGCCTCACCAGAGTTCCCAGCTGCTCTGGCAGAGTGCCCAGGCTTGCCCCAGAGCCCAAACAGAATGCTCTTTGAGATGCCTCTGGTTTTCATACCCTTCCAGGGGAGCAGTTTCCTGGCTGTGTCGTCAGATACTGTGGTTTACGCTGTTCCGGAGTCTGGAGGTCTGTGTGCCTTTGATCTCTTTCCCAACTAATTTGCACAGCTGCTGTGGAGGCCCTCATGAATGACCTCTTTCTTTCCTTTCT

What was measured:
Type in all cases: cell-based, human
GSC7 cells [1] = assay: Flow cytometry of mNGreen reporter in GSC7
Procedure: (§1) Cells were seeded at the required density. The following day the transfection was carried out. For this the Plus reagent and Lipofectamine LTX (Life Technologies, 15338030) were each diluted in half the volume of Opti-MEM I Reduced-Serum Medium (further referred to as Optimem) (Life Technologies, 31985062). Following this step, the Plus reagent/Optimem premix was added to all DNA samples followed by the Lipofectamine LTX/Optimem premix. The transfection mix was incubated for 5 min at room temperature and then carefully dropped on the cells. Generally, no media change was carried out. Cells were analysed two days following transfection.
For flow cytometry, cells were detached, pelleted and resuspended in an appropriate volume of flow cytometry buffer (1% BSA in PBS, v/v). Cells were stained with Draq7 (Abcam, ab109202, f.c. 0.1 μM) as a live/dead stain and analysed using the BD LSRFortessa cell analyser (4 lasers, BD Bioscience). Analysis of flow cytometry data was carried out in the FlowJo Analysis software (FlowJo, version 10.6.2).

GSC7 cells [2] = assay: Nano-Glo Dual-Luciferase Reporter (Nanoglo DLR) enhancer assay in GSC7
Text: We chose an arrayed library format, with 160 bp enhancer fragments individually cloned into separate plasmids and arrayed in 96 well plates. These 160 bp were synthesized as a single pool of oligos, then randomly cloned into the plasmid and isolated. 20 bp×2 were needed for PCR amplification of the pool and so a library of 200 bp fragments was synthesized (Twist Biosciences). To meet our oligo synthesis strategy, ChIP-seq peaks expressed by GSCs were merged into a single oligo. This oligonucleotide pool was PCR-amplified (using limited cycles to reduce bias and ‘jackpot’ products meaning products which are easier to amplify will overtake the oligonucleotide pool) and cloned into the expression vector by an efficient Golden Gate reaction. 4579 individual plasmids were then randomly picked, isolated and plated as an arrayed plasmid DNA library on 96 well plates (×48). The bacterial colony picking and production of plasmid minipreps were supported by the Edinburgh Genome Foundry (S. Rosser). This library was then screened using the optimised Nanoglo DLR assay (Nano-Glo Dual-Luciferase Reporter Assay, Promega) in 384 well format. Each plate was transiently transfected together with PGK-FFLuc in a 1:10 ratio into GSC7 cells. 2 days later a Nanoglo DLR assay was performed and assayed on a plate reader.
Cells were seeded in 384 well plates using a multidrop and transfected the following day using the CyBio Felix. Two days later the experiment was terminated with a Nanoglo DLR assay and all hits with a fold change to mCMV greater than 10 were Sanger sequenced and mapped back to the genome.
as §1
This assay consists of two steps. […] First, the Firefly Luciferase activity is measured which allows to normalise to transfection efficiency. In a second step, the activity of Nanoluc is determined which is the readout of the plasmid of interest. […] 20 μl cell lysate in 96 well format or 25 μl cell lysate in 384 well format was then transferred into the corresponding opaque white plate and luminescence was measured at for 0.1 s per well using the Ensight Multimode Plate Reader. […] Nanoluc activity was measured for 0.1 s per well, again using Ensight Multimode Plate Reader. […]

[3] = system: patient-derived glioblastoma cell lines; assay: SSE-7 mCherry expression across patient-derived glioblastoma cell lines
Text: The experiment described in Example 8 was repeated in five patient-derived glioblastoma cell lines (E17, E21, E28, E31, E34).

Molecule | activity compared with full CMV by flow cytometry (GSC7 cells [1]) | activity compared with full CMV by Nanoglo DLR assay (GSC7 cells [2]) | mCherry expression ([3]; E21, E31 and E34) | mCherry expression ([3]; GSC7, E17 and E28)
B1 | higher than CMV | higher than CMV |  | 
B2 | higher than CMV | higher than CMV |  | 
B3 | higher than CMV | higher than CMV |  | 
B4 | higher than CMV | higher than CMV |  | 
B5 | higher than CMV |  | lower frequency of expression | highly expressed and comparable to full-length CMV
